The record followed here is the DeepSol protein solubility set.

The series can be described thus: soluble on expression in E. coli; label from the status in PepcDB or PDB records.
As for “MSLKSDNDVVITGVGIVTCHGVGSQAHVALLSGAAVPEPVVETEKFKPYPVHPMPEIDWSAQIAKRGDQRQMENWQRLGVFAAGLALDDAGLKENTEACATMDMIVAAGGGERDINVDTLIVDEALKRNDREKLLNEKLTTELRPTLFLAQLSNLMAGNISIVHKVTGSSRTFMGEEAAGISAVETAFHRIRSGESSHALVGGAFSAERPDMILLFEAIGAHAQGGWQPLWSRGDQDGGGMISGSLGAFLVLESRKHASERGARIYARIDAIEGDRGSRDDGKMEKRMERLLAPAKDSAATVVFSGASGYDEVTVREKDILEKVLPNSVIRGFGGVTGHGLEAQFPLGLALAALTLESGAKVPTFDAAAEKPMGEAATEAVVTTVGHVRGEGVAVLSRDVEGHHHHHH”, the “soluble on expression in E. coli” value is “soluble”. Under “VDYKEWYDLRIEALQMQAQMHRSPLRGLIGARVGLIPHQLYIAHEVGQRFAPRVLLADEVGLGKTIEAGLIIHQQLKTGRAERILILVPDSLQYQWMIEMRRRFNLQFSLFDLTRTASIKEHDPDLNPFLTEQCIIASVDLMVDHDDLREQALEAGFDLLVVDEAHHLMWNEEEGGNDRYDLVEELAQQTPGVLLLTATPE” stands “not soluble”; under “MSSTPSLSHSPAELYRAWQDLRAERPQLRARDAAALLQVSEGELVASRVGIDAVRLRPDWAALLPALGELGPIMALTRNEHCVHERKGPYREVTVSANGQMGLVVSPDIDLRLFLGGWNAVFAIAEETARGTQRSIQVFDQQGVAVHKVFLAEASDVRAWEPLVERLRAAEQDAVLALHEPRAPAAALVDAQIDAAALREGWAALKDTHHFHALLKKHGAQRTQALRLAGGEWAERLDNGDLAKLFEAAAESGLPIMVFVGNAHCIQIHTGPVCNLKWLDDWFNVLDPEFNLHLKTTGIAELWRVRKPSTDGIVTSWEAFDADGELIVQLFGARKPGEPERDDWRELAESFKAL”, “not soluble”. Regarding “MATAAVTDDIEEGARKAPALIRYLAEGEYVTRRYVSQGAEMNTGEYADYECVVRDGMPIRDHFTLDVHGFALGRHRSAVADFHDKPTVDALYLDEVEELVTRLCGAARTAAQGWMIRTSADLTERAKQKVQGYQHSGGIQPPAGEAHVDYNEVTGRRAAARVYADRFPDGPGYKRYICFSLWRTFSPGPQDWPLAVCDGRTVRDEETASNTLFVVDEFPVGDALTAPVEGEDQMIAATIFRHRDRHRWWYFSNMAADDVLLFKFQDSDHSVTWRCPHTAFHDTSLPDAKTRSSIEVRCIAFFELEHHHHHH”, the “soluble on expression in E. coli” value is on record as “soluble”.

For the sequence “MQEKTTESRILDATGRPFKVREAKELQTDDVRLAGLHRTFSNHPSSGLTPASAASILLSAEQGDLIAQCELAEDIEEKDGHLFAELDKRKRALIGVDYYLEPPSNPTPQEKADTEYLQQMLEEGGWIKSLIKSIADAILKGFSMHELAWSRELGEWFVEVPEYRDPSWFMTHPERRNELRLRDSTHEGAELWPFGWIKHIHPAKSGYVSRSGLVRQLIWPFIFKNYSVRDLAEFLEIYGLPLRIGQYPAGASDGEKRALLNAVMSIGHNAGGIMPKGMVMDFHSAATGQADPFELMMTWAEKTMSKVILGGTLTTQADGKSSTNALGNVHNEVRQELRDADLALVAETLTRDLIAPLYALNCKSYRSHRRHPRLVFDTTEAEDLRALAYPLRAFVSMGMQIPQNWLHEKTRIPKPANGEAVLVIQQDDPNATAASQTALAALSAKEGAAKQPDASLNEPSQTALDKALDALTQGQMSEAYMGMVEPLLAQLQSEPEQLRAQLEQNYPNMDTEQLTETLARLMFVAELWGMANA”, the “soluble on expression in E. coli” value is recorded as “not soluble”. Under “MGSDKIHHHHHHAAIPISVTKGPDGIKIHCLNSANNPLLGSPAYKNVRIVELEKVPFFQRINNIRKLEMNDDYLFVQTSEKLYTYTLNGELMAEIGRKGEREDDYSELSTFYIDNKKKQITIIDGVQNKLINYNFWGNYMFTDTISEGAFKWCYQTLLINNNQLLNYHGMSMDNTEPYSLFDLTKKEVIKRYFSYQPITLGNYVYPFSWHPMTRADKDIDVIMPLCDTVYTYSAASSSFQPKYIIEMTQKMAPKNKIRKNTPSYSGDLLKLDQQGYFTGFDGIYETDTKILLQYMYGITLGYFLFDKYTKTGSFYLYSQNDKGKTFPFNVIVHSYKNEFVAFGKGKELRSLTHIKDKKVREKIESLGDNSACLIFYELE” stands “not soluble”. In the case of “MGSDKIHHHHHHMVYPVRIDTIRYDRKFSFVVFVEDIQSSHQIIDNIMDIGDEIGYPYEVIVSAKDQVTDDYYSDEIKVVGTGLNRRSDGIQRSLKSSTGNYFVIFDPNIRYSLSYADLLYGYAETGSSEVLVSEILGFQTDVLRSVGGWRDLSYGEDIDLLVRVIDNYGVITYPFYGLKQIDLTELIKSTDSIRSGKIKKLRDLIISCNFKYQDIKTIAKILDKSSRISRLLYLSKILSNFARIRPYERPKNNYLTIMERIMESILAKEFLKITTVDFKPSLAISTKTAEYLAGESPLWRITEENGNFVREKI” it was “not soluble”; in that of “MGSDKIHHHHHHMGFVKPFSKINGSIIMVILGLLASACGQSGSETGGLVDANEPVSPQPNLGEQQGVLEQNLPVPNNQQTDYFRVILYGNSHVSGLPSLIQLLINTGVPQVRVEVKNVGGGFLDESYYNDAYQARLTATPWTHAIFQGQKYSQSGTSIYPTTAAQKWLDKAKSLGITPILFPEHPQDGKLEEGEYVYQLHQGITSMQSSCLAPIPLVWERVIQLLPDVHLHAPDGNHASSLGNFLTALVFYEVITGRSADLLPYLSNIAISEQIQSIFGQVVSEVLADKPACPTF”, “not soluble”; in that of “MQTPHILIVEDELVTRNTLKSIFEAEGYDVFEATDGAEMHQILSEYDINLVIMDINLPGKNGLLLARELREQANVALMFLTGRDNEVDKILGLEIGADDYITKPFNPRELTIRARNLLSRTMQ”, “soluble”. Under “MKQKNENAPRPGGAGRKPKADPAVFRYSISFNAIDHARFLALFDQSGMRTKAHFITARIFGEPFKVIKIDKAAVEYYTRLTALYSQYRGIAVNYNQVVKALNTNFSEKKALAFLYKLEKATIELADLNRQIIELTREFETRWLQR” stands “not soluble”; under “MSSLKGKRIGFGLTGSHCTYEAVFPQIEELVNEGAEVRPVVTFNVKSTNTRFGEGAEWVKKIEDLTGYEAIDSIVKAEPLGPKLPLDCMVIAPLTGNSMSKLANAMTDSPVLMAAKATIRNNRPVVLGISTNDALGLNGTNLMRLMSTKNIFFIPFGQDDPFKKPNSMVAKMDLLPQTIEKALMHQQLQPILVENYQGNDLEHHHHHH”, “not soluble”; under “NGYEALIMTHSAVTDPPLMIRSADNSLIKADDKTLLTALEAEGIGSYSFILTGEGLVKTKYRQQAVSLMGVDDRYPRTVKIDSIVFAGTFATDTLSGATALNVGAAIATEMQLGAGFVEAVEVIVPRRIGLINPLVPAGAFKSLQGQVASVFASGLQPEDNSIILSIDSLRKLLDYSDHEAEAVAIQLRTGSDAEQIALRLKETLGDSYQVLDLAGQHPEITHLIAMEKWMS”, “not soluble”.

With “MRNKVLIVLAVIAGALILKSCGEPYSGAKETVGEFMEEIAEGEGRDAIKYLYPAYRDELAKNFKLPVQFTEMKPSEVLACVLSTMGRNIDEVEIKKAIAVNPNTANVVVKVEDKEGIEKFFSFTVVKEGDKWYIAKIEKYIPQVGR”, the “soluble on expression in E. coli” value was “not soluble”.

Take “GSDGTREFLTFEVPLNDSGSAGLGVSVKGNRSKENHADLGIFVKSIINGGAASKDGRLRVNDQLIAVNGESLLGKANQEAMETLRRSMSTEGNKRGMIQLIVARRISRCNE”: the “soluble on expression in E. coli” value is “soluble”. Under “AIADPAEVEFLAEKEMVKIIPNFSLDKIYLIGGDLGPFNPGLPVEVPVWLALNLKQRQKCRIVPPEWMDTDKLEDIREQERKLDTFTPIPNPYYMELTKLLLNHAADNIPKADEIRTLVKDIWDTRMAKLRLSADSFISQQEAHAQLDNLTLMEINTTRSFLLDSLNYMYKLRSNLQPGRSKDY” stands “soluble”. Take “MMPTSTCGYPGMAEQSTVLYTAVGYMVGFVSLFNHTHSQDNFFHRGCYYGCDDDNMRFAFFSKAALEFLLRSNKKPDIIHCHDWQTGLIPIMLYEIYKYHGMEYQRVCYTIHNFKHQGMGGVGTLQATALNEASYYFQYNKLRDNFNPFALNLMKGGIIYSNAVTTVSPHHAVEAQTSE”: the “soluble on expression in E. coli” value was “not soluble”. In the case of “MKRFLIITILALSVFSLALTLDDAYRLANITQRKLIMMFSSPTCYYCNLFKKEVFPKEDFQEILIPNFVFVELYATDEKTTLFAKEVLGEESVSYRDLFAGFGVRGTPTFFFFKGKEGLGYLPGYVDKDNFIKILKYVAQELKEDFQTYLKKDDPFVGEPLIIEIFKEDADFVLEKDENAVKVDTVPNEVRRDRIYVTDSPDVAKTLQEKGALRVLLAK” it was “not soluble”.

For the sequence “MSDVIFLRQYDDIDIVSSPSQNNIIFGHEAARHFLAQILKEERLPHAILFEGDYGIGKATLAFHLAWNILSSQKDGFKQPEHNSVIWRQITQGSHPGLLHISRRFDVKTQKFKTGILFDDIRDIIHFLNRTSKDSGWRIVIIDPADDMNRNAANAILKTLEEPPAKTLFIIITHFSGKLLPTIRSRCQQISLRPLHNDEMKKIIIHMFSNQNVIDEENIGMIIQKSNGNPRKAALLIHGGFEIIKTIDTLLGQSVCNPTIVHNLAQTLSSLSSVIQFQQFCDEILDKIQKKAIMLAERGNLALSKKCAQAWQEIHQEIGEIQSFNLDKKQFIINLLFRVHKIICESELFP”, the “soluble on expression in E. coli” value was “not soluble”. Under “QQEKEFLESYPQNCPPDALPGTPGNLDSAQEKALAELRKLLEDAGFIERLDDSTLLRFLRARKFDVQLAKEMFENCEKWRKDYGTDTILQDFHYDEKPLIAKFYPQYYHKTDKDGRPVYFEELGAVNLHEMNKVTSEERMLKNLVWEYESVVQYRLPACSRAAGHLVETSCTIMDLKGISISSAYSVMSYVREASYISQNYYPERMGKFYIINAPFGFSTAFRLFKPFLDPVTVSKIFILGSSYQKELLKQIPAENLPVKFGGKSEVDESKGGLYLSDIGPWRDPKYIGPEGEAPE” stands “soluble”; under “MGSDKIHHHHHHMKAVVIGGGVFGSLIARELTKYDLEVTLIEKNLDVGWGVTKANSAVVHAGYDDPPESVRAQFCASGNAMYEDLSKELDFDFKRIGSFVVAFNDEELKELERLLKQGEENGVPGLTILERDEVLSMEPNLNPEVKYALYAPTAGITEPWMVAIAAVENAVQNGLKLVLGESVVGFEKVNGRVRKVHTSRGEYEADIVINCAGLHADEIAKLAGAEYVPLHPRKGEYILLDKKLQGLVKRVIFPTPTKISKGILVLPTVDGGILLGPTAEDLPEEMKDRPITTREGLEKVREFTRRLVPSLDFSLVVKTFSGLRPESPQKDFFIKVSETVKNFVNVMATRSPGLTAAPAVAKYVVEELIQEKMRIPLEKKKDFKPERKRIVHYSELPLEEWRREIERDPRAGRLVCFCNEVTEKEIVEAIRRGARTLNGVKFRTRAMFGRCQGGFCMARILKILERELGVDMSEIKMKSENSWVVNGKVRE”, “not soluble”. Under “MFPIGEQPRILKDLAGINEDVQELAISGKTKNIELLGELKIRDLWIFTVNQTQFDKIMEYVNPEILYIDEMRVENLSKLQKMSNLRRLYLGWNPKNTDLWDLSYNNNLSYLLIQAFSKLEDLSPIKDGKKLEGLFLGGAIMKTLNVKTLDPIGDLVELNELTLMNIKVQDRSLEPLMNLKRLKKLNVSNQFPMEEYAKLSVVLQNTECEFFKPYVRMESTEGKDIMMIGRKRPFLNSKIDAEKIRKYEQEFKTVQEEFRDGMK” stands “not soluble”.
